{"source": "paper PMC3092763", "about": "“Urate Oxidase Purification by Salting-in Crystallization: Towards an Alternative to Chromatography” (PLoS ONE, 2011)", "target": "the molecule itself", "assay": "SEC; analytical SEC of the pools of the downstream process; Superdex 200 GL, 50 mM sodium phosphate buffer pH 8, UV detection at 226 and 280 nm; column calibrated with seven proteins of 13.7 to 669 kDa; oligomer size from the calibration (with IEF profile and activity test as support)"}
{"protein": "recombinant urate oxidase from Aspergillus flavus (rasburicase) (enzyme, UniProt Q00511 1-302, looked up, urate oxidase (uricase, EC 1.7.3.3) from Aspergillus flavus, recombinant form (rasburicase); subunit of about 34 kDa, 135 kDa tetramer of identical subunits; Several isoforms are seen by IEF even in the purest pool; also called Fasturtec; Elitek; source: expressed in a genetically modified Saccharomyces cerevisiae strain; supplied by Sanofi-Aventis, sampled at different steps of the downstream …) MSAVKAARYGKDNVRVYKVHKDEKTGVQTVYEMTVCVLLEGEIETSYTKADNSVIVATDSIKNTIYITAKQNPVTPPELFGSILGTHFIEKYNHIHAAHVNIVCHRWTRMDIDGKPHPHSFIRDSEEKRNVQVDVVEGKGIDIKSSLSGLTVLKSTNSQFWGFLRDEYTTLKETWDRILSTDVDATWQWKNFSGLQEVRSHVPKFDATWATAREVTLKTFAEDNSASVQATMYKMAEQILARQQLIETVEYSLPNKHYFEIDLSWHKGLQNTGKNAEVFAPQSDPNGLIKCTVGRSSLKSKL", "values": [{"measurement": "stoichiometry N", "result": 4}]}
